Where “and” joins values, the source holds several entries; their conditions need not be identical. Equal values may be shown once.
Conditions: Aspergillus oryzae (strain ATCC 42149 / RIB 40), 25 °C, Fluorescence, reversible: yes, whole UniProt chain shown

B1: Guanyl-specific ribonuclease T1 wild type, P00651 (protein)
chain: MMYSKLLTLTTLLLPTALALPSLVERACDYTCGSNCYSSSDVSTAQAAGYQLHEDGETVGSNSYPHKYNNYEGFDFSVSSPYYEWPILSSGDVYSGGSPGADRVVFNENNQLAGVITHTGASGNNFVECT
pH 2.92, GdnHCl, formate 30 mM
  denaturant m value: 2.89 kcal/mol/M
  denaturant midpoint (higher = more stable): 2.78 M
  unfolding free energy: 8.04 kcal/mol
pH 2.92, Urea, formate 30 mM
  unfolding free energy: 6.2 kcal/mol
pH 3.02, GdnHCl, formate 30 mM
  denaturant m value: 2.89 kcal/mol/M
  denaturant midpoint (higher = more stable): 1.8 M
  unfolding free energy: 5.2 kcal/mol
pH 3.02, Urea, formate 30 mM
  unfolding free energy: 5.2 kcal/mol
pH 6.98, GdnHCl, MOPS 30 mM
  denaturant m value: 3.09 kcal/mol/M and 2.58 kcal/mol/M
  denaturant midpoint (higher = more stable): 2.99 M and 2.98 M
  unfolding free energy: 9.24 kcal/mol and 7.7 kcal/mol
pH 9.89, GdnHCl, glycine 30 mM
  denaturant m value: 3.27 kcal/mol/M
  denaturant midpoint (higher = more stable): 2.57 M
  unfolding free energy: 8.4 kcal/mol
pH 9.89, Urea, glycine 30 mM
  unfolding free energy: 8.6 kcal/mol
pH 9.91, GdnHCl, glycine 30 mM
  denaturant m value: 2.58 kcal/mol/M
  denaturant midpoint (higher = more stable): 1.36 M
  unfolding free energy: 3.52 kcal/mol
